Experimental data as given in patent US20040121386.

Assays:
[1] = target: unactive JNK1 (Upstate, Inc.)
[2] = target: unactive p38

B1: His-tagged MKK7γ1 (protein)
chain: AASSLEQKLSRLEAKLKQENREARRRIDLNLDISPQRPRPIIVITLSPAPAPSQRAALQLPLANDGGSRSPSSESSPQHPTPPARPRHMLGLPSTLFTPRSMESIEIDQKLQEIMKQTGYPTIGGQRYQAEINDLENLGEMGSGTCGQVWKMRFRKTGHVIAVKQMRRSGNKEENKRILMDLDVVLKSHDCPYIVQCFGTFITNTDVFIAMELMGTCAEKLKKRMQGPIPERILGKMTVAIVKALYYLKEKHGVIHRDVKPSNILLDERGQIKLCDFGISGRLVDSKAKTRSAGCAAYMAPERIDPPDPTKPDYDIRADVWSLGISLVELATGQFPYKNCKTDFEVLTKVLQEEPPLLPGHMGFSGDFQSFVKDCLTKDHRKRPKYNKLLEHSFIKRYETLEVDVASWFKDVMAKTESPRTSGVLSQPHLPFFR
B1 was tested, and the “phosphorylation in a two-step cascade kinase assay (γ-32P-ATP, SDS/PAGE, autoradiography)” value [1] was “in turn was able to phosphorylate JNK1” and the “phosphorylation in a two-step cascade kinase assay (γ-32P-ATP, SDS/PAGE, autoradiography)” value [2] was “MKK7γ1 was unable to phosphorylate p38”.
